Literature values as cited in publication PMC3218432.

Target: Asp85 (UniProt position 98, WARYADWLFTT)

**Q.** For “Bacteriorhodopsin (Halobacterium salinarum (not stated in the article; described as archaeal))”, which pKa is on record?
**A.** 2.3
